Assay results: article PMC5881502 (The Journal of Cell Biology, 2018)

B1: Hsp42ΔPrLD (purified) (domain or fragment, S. cerevisiae, UniProt Q12329 100-375, looked up)
chain: MVGDSGTTRQEDGGEDSNSRRYPSYYHCNTARNNRTNQQANSLNDLLTALIGVPPYEGTEPEIEANTEQEGEKGEEKDKKDKSEAPKEEAGETNKEKPLNQLEESSRPPLAKKSSSFAHLQAPSPIPDPLQVSKPETRMDLPFSPEVNVYDTEDTYVVVLALPGANSRAFHIDYHPSSHEMLIKGKIEDRVGIDEKFLKITELKYGAFERTVKFPVLPRIKDEEIKATYNNGLLQIKVPKIVNDTEKPKPKKRIAIEEIPDEELEFEENPNPTVEN
B2: malate dehydrogenase (MDH) (enzyme)
chain: AKVAVLGASGGIGQPLSLLLKNSPLVSRLTLYDIAHTPGVAADLSHIETRATVKGYLGPEQLPDCLKGCDVVVIPAGVPRKPGMTRDDLFNTNATIVATLTAACAQHCPDAMICIISNPVNSTIPITAEVFKKHGVYNPNKIFGVTTLDIVRANAFVAELKGLDPARVSVPVIGGHAGKTIIPLISQCTPKVDFPQDQLSTLTGRIQEAGTEVVKAKAGAGSATLSMAYAGARFVFSLVDAMNGKEGVVECSFVKSQETDCPYFSTPLLLGKKGIEKNLGIGKISPFEEKMIAEAIPELKASIKKGEEFVKNMK
B3: Hsp42ΔIDD (purified) (natural protein, S. cerevisiae, UniProt Q12329 1-375, looked up)
chain: MSFYQPSLSLYDVLNALSNQTGQRGQQGYPRQPQRPQRYHPHYGQVHVGGHHPRHHPLYSRYNGVPNTYYYQFPGQAYYYSPEYGYDDEDGEEEDQDEDSPEVNVYDTEDTYVVVLALPGANSRAFHIDYHPSSHEMLIKGKIEDRVGIDEKFLKITELKYGAFERTVKFPVLPRIKDEEIKATYNNGLLQIKVPKIVNDTEKPKPKKRIAIEEIPDEELEFEENPNPTVEN

How the values were obtained:
[1] = biological target: the molecule itself; test: SEC-MALS
[2] = biological target: Hsp42 WT (purified, C-terminally FLAG-tagged) (S. cerevisiae, UniProt Q12329 1-375); test: HDX-MS
[3] = biological target: B2; test: HDX-MS

binding result [2] | binding result [3] | Binder | stoichiometry N [1] [subunits]
 |  | B1 | 4
binds |  | B2 | 
 | binds | B3 | 36
